Source: patent US20230132667
Read-outs that look alike come from different tables or passages of the source.

What was measured:
[1] = biological target: T1, P-TEFb/AFF4/Tat(1-57) core super elongation complex (CDK9/CycT1/AFF4/Tat) (Homo sapiens (CDK9, CycT1, AFF4)?; HIV-1 (Tat)) (UniProt P50750+O60563+Q9UHB7+P04608); details: CITED mutational data (apparently), cited from earlier work
[2] = biological target: T1, P-TEFb/AFF4/Tat(1-57) core super elongation complex (CDK9/CycT1/AFF4/Tat) (Homo sapiens (CDK9, CycT1, AFF4)?; HIV-1 (Tat)); assay: EMSA; details: 250x yeast tRNA

For “GGCAGAUCUGAGCCUGGGAGCUCUCUGCC [HIV-1 TAR]”, the Kd ([1]; wild-type UGGG loop) is listed as 0.23 nM, the Kd ([2]; 0.5 nM RNA, 0-90 nM complex, 6% native gel) is listed as 0.34 nM and the Kd ([2]; TAR preincubated with 10 nM Palbociclib) is listed as 35.6 nM.
In the case of “GGCAGAUCUGAGCCCAAAAGCUCUCUGCC [HIV-1 TAR loop mutant UGGG to CAAA]”, the Kd ([1]; [15-18], CAAA loop) is listed as > 10 nM.
